The record followed here is the DeepSol protein solubility set.

This data set can be described thus: soluble on expression in E. coli; label from the status in PepcDB or PDB records.
Consider “GPGSMSSIPVDVLNAVTQCNEKVTAVEKEIEEFTNQVRIDFRSKIEPLFDKRHLELEKIEGFWGSAFVAVESPLMGLLNGTIDPKIVRALTDFRVKTSVRDGSICRCVSVTFRPNMFVKEGTFSRELDPSVNTLSLQPILWKPGTEKARTDSLFRFFSPECKDIEFLERALTEFDELFQNPLLAFE”, for which the “soluble on expression in E. coli” value is “not soluble”.

As to “MAQTKPIAEQMAALNNSDDTSFAADRSNSLLNATCPARIQNSVDQRKINRSFNDSLSSGYSGKWLRPKREALKITPLAQIDEAPATKRHSSAKDKHTEYKTRLCDAFRREGYCPYNDNCTYAHGQDELRVPRRRQEYYSRDPPRERRDSRSRRDDVDTTINRSSSSASKHHDENRRPSNNHGSSNRRQICHNFERGNCRYGPRCRFIHVEQMQHFNANATVYAPPSSDCPPPIAYYHHHPQHQQQFLPFPMPYFLAPPPQAQQGAPFPVQYIPQQHDLMNSQPMYAPMAPTYYYQPINSNGMPMMDVTIDPNATGGAFEVFPDGFFSQPPPTIIS”, the “soluble on expression in E. coli” value is listed as “not soluble”.

“MRKINTNKNDSQIYSRGFIMRNIRPSQLGQYIRRALRLHFIPVVLVAAPSVMANTNQETEQLETLVVTASALKVETPAQETPKALSIVTQEEIVARAPQKLDEALRYTSGVTAQPYGADNDTDWLKVRGFDAATYQDGSRLFRDGYYTWLIEPYALERIEVLKGPASILYGEAPPGGVVNAVQKKPTDIPQGEVGLQVGNDALRTLTLDISDYANQDGSVRYRLVALMKENDGQLNGTQTSRNYLAPSLSIDISEQTRLTLLASFLEDSGVPTNPFFPAAGTLIDSNFGHIDPSTNLGQPDYDKYERRQVSLGYLFEHDLNDVWALSQTFNYGDNDLYLRSSYAFSNDDPSKDTLTQGIVFRDGSTESLSLDNKAVAKWDSARVENTLLMGLELQRHQTQGVELDNYSFGTINPFNPNYGNFTPIDESSAADRTITKEQASLYAQYQIKLDQQWIGLIGGRMDWVDTENESQKNMQRKSRSDAEFSFNAGLMYLASNGVSPYLSYSQSFDVLSTIDSAKGELYKPLKGEQTEVGVKYQPEFYDGYINLAWFDITQQNALVTNPTTFVATQTGEMTAQGIEVESVGYVTDSLKLTASYTFTDAKTDETGGKGTQQAGLIPKHQASAWLDYDAAQLGLQGWTFGSGVRYIGESKDNPRSSDRTVPSVTLVDLMAGYEITENWQVQLNINNLFDREFVSGCDYWCYYGQSRSAVLSANYRW”: the “soluble on expression in E. coli” value is given as “not soluble”.

For “MNTPLKRFFKIGYVIENFLHPYHNKKLLPLSRGVNIKGIFVLLNTLWRVFQDGSLQDLWSFT”, the “soluble on expression in E. coli” value is listed as “not soluble”.

For the sequence “MAHHHHHHMLPLDSPPVTQLAKEFVNFINEACTPFHAVEVLSSWLSNAGYQRLKEGETWPKLTNGYRYFITRNDSSLVAFSVGGRFVAENGLKIVGAHTDSPNLALKPRTLAGRSDYQGVAVQCYGGGLWHTWFDRDLTVAGRVIISSSKLVKRLVKVNKPIMRIPTLAIHLQSVEERNAFGPNKEKHLVPVIATTLSHTPNGDVSEHHNSQLLILLAESLGCRPSEIVDYDLSVVDTQDAVVGGANDEFIYAPRLDNLISCFCGVKALLESDKTLEEENMIRMVCLFDNEEVGSSTSQGAGGSLVPDVIEYISASGGLRAQLVANSFLMSVDGAHAVHPNYQDKHEEKHRPLIHRGPVIKYNANMRYATNGVTAAIVKAIAKRASVPIQEFCVKNDSPCGSTIGPILSSLSGIQTVDLGNPMLSMHSIREMCGTADLLHLKNLLEAFFNHYTRDMVTS”, the “soluble on expression in E. coli” value is given as “not soluble”.

Take “GPGSMSVTIYGIKNCDTMKKARIWLEDHGIDYTFHDYKKEGLDAETLDRFLKTVPWEQLLNRAGTTFRKLPEDVRSNVDAASARELMLAQPSMVKRPVLERDGKLMVGFKPAQYEAYFKL”: the “soluble on expression in E. coli” value is listed as “soluble”.

For “GSHMSKSDVFHLGLTKNDLQGATLAIVPGDPDRVEKIAALMDKPVKLASHREFTTWRAELDGKPVIVCSTGIGGPSTSIAVEELAQLGIRTFLRIGTTGAIQPHINVGDVLVTTASVRLDGASLHFAPLEFPAVADFECTTALVEAAKSIGATTHVGVTASSDTFYPGQERYDTYSGRVVRHFKGSMEEWQAMGVMNYEMESATLLTMCASQGLRAGMVAGVIVNRTQQEIPNAETMKQTESHAVKIVVEAARRLL”, the “soluble on expression in E. coli” value is reported as “soluble”.

“MGSDKIHHHHHHVRKFKIPNMGALLAFEAAARHESFTHAARELFLTESAVSRQINTLESNLGVRLFVRVKQRVMLTRAGKVYSAQVRRSLEQLDRDTLSIIAHGSGGGYLELAVLPTFASQWLIPRLAAFNAQYPDVRVNMGVRTGTFPFAETHFEAAIHYGKPTWPGTSADFLFSEEVVPVCAASLLKRPVQSAADLLDYPLVHSTTRPDGWAAWFANMGIDDNRTMQGVRYELHTMLISAAAAGLGIALVPRFFVDAQLEQLGLVIPLDAPVVADSAYYLVYPTELSHGKPLASFREWLLREAAAYSAVNPELGGPRDMD”: the “soluble on expression in E. coli” value is reported as “not soluble”.

As for “MSTQEVNITLTDFINQLDSNAEQVSFEQVMKVISENYNYLPATFNNGDLFNEAGTNEGSCKIFYFAKLNNLSEQQTLACFGRFYREDVVNNPQGNDHGNIRNFMQSGWSKVEFNSVALTPLT”, the “soluble on expression in E. coli” value is on record as “not soluble”.

Consider “MRLFFQHFLLFYAASAYNVSVNTNRSFLFGDVLEPLCSINVTGQNLTRSELIELFHKWEKYTSSQISSSSSISDYRKAMPCFPGPNLNLTSSNSDMIPQYPNCETFVNISKTTFGEANDLLEEVKKVRGVEQMDVSLKSVINSLSSRLQNLIDYLPDGATKNKTQERLSTLIEIGNQKLPETLRNSTRNQPPTQSTKSEFNPFELLSCFNISMMKTATVSGQTIGSIACSKFKLCSFSAVTSNPCLSNLRITEAQYDSVVNKTIAELIGEKLGGEQVQKKLGSAIGQFFGEHPRSKRTPKPRCENCTEEEYEDVTPLSDQVKMDGREELEESDDRSSGVESDESSGEVIDESYGKIDELDQEMSKRSTDSRKMSHEEITQAKIAKIRESIIDQLLTKTDDPDNSTDFQPTKRSAALEASQDNFKEALDNFRTEHIEDMTEGSGQESDRPTDSTKLYGSTQSPSEIIRPSIRTLNMETESSPVDFIENMSPISDSNDMDSSTVPNVAKKNNNFEKDLDAFRTVNNGSEKLNSSMFQELQTVLNLKLNSTMLEYAASFANISESLPKMSGEFTVSQFLQKMDINDWPTLKHLLNSMQSVFGNLPGFSQISNFIENLSSSGLDLKSVLKMIPAMNSSGTSLHKDAVLDLLNSFKSKISSSDTPKSPALEAAIQKISEASTLPTLLQNDLNSNDSSISDALNILKSNPLLSSLKI”, for which the “soluble on expression in E. coli” value was “soluble”.

For the sequence “MGSDKIHHHHHHMMGLKAHAMVLEKFNQPLVYKEFEISDIPRGSILVEILSAGVCGSDVHMFRGEDPRVPLPIILGHEGAGRVVEVNGEKRDLNGELLKPGDLIVWNRGITCGECYWCKVSKEPYLCPNRKVYGINRGCSEYPHLRGCYSSHIVLDPETDVLKVSEKDDLDVLAMAMCSGATAYHAFDEYPESFAGKTVVIQGAGPLGLFGVVIARSLGAENVIVIAGSPNRLKLAEEIGADLTLNRRETSVEERRKAIMDITHGRGADFILEATGDSRALLEGSELLRRGGFYSVAGVAVPQDPVPFKVYEWLVLKNATFKGIWVSDTSHFVKTVSITSRNYQLLSKLITHRLPLKEANKALELMESREALKVILYPEG”, the “soluble on expression in E. coli” value was “soluble”.

For “MSLTNPAPIEAPLPKGVTDFLPEKADKIGYIEGKIRRVFELWGFRRIITPLLEFQDVMAAGLGEDLKERTFRFDDRQTGKLLAIPSDITPQVARIVATRMRGCPLPHRLYYIGRVLRHVELQSGRSRETFQAGVELIGLDSPEADAEMVAMAVEILKGLGFEEFKVDLGHTGFIRGVMAASGLGGDARRRLQEAVGKKDSSAVRAILETEPVADRIKEELAALPRLFGGREVLAEAARVATSDSSRRALDNIAQVLDILDIHGVSDHLTLDLGEIRGLDYHSGLTFEGFVTGIGEAVCSGGRYDNLTQRYGYPAPATGFAFNILALLNALEKRPDVEASKTRDLLIFNLKDDRREALEIAQHLRALGYSTARDIIHRDFNDSLDYARRMNILRMMVIGGDYCAADEAYVVRVADKRGTAVKKADLMRNDFSLNTEGHHHHHH”, the “soluble on expression in E. coli” value is on record as “soluble”.

With “MTAISCSPRPRYASRMPVLSKTVEVTADAASIMAIVADIERYPEWNEGVKGAWVLARYDDGRPSQVRLDTAVQGIEGTYIHAVYYPGENQIQTVMQQGELFAKQEQLFSVVATGAASLLTVDMDVQVTMPVPEPMVKMLLNNVLEHLAENLKQRAEQLAAS”, the “soluble on expression in E. coli” value is listed as “soluble”.

With “MKEGKWFASANNQNKFLDPRERGNILNYLKVCLLLARAVRRMHAAGLCHSDLSYKNVLIDPEQGHACIIDVDGLVVPGKFPPDVVGTPDFIAPEVVKTSHLLKEDPQRILPNITTDRHALSVLIYMYLFYRHPLRGGKIHDMDDEVRDESLAMGERALFIEHPTDRSNAVKLNQVKPSSLPWADPQKVPYTIMGPYLTQLFEKAFIDGLHDPSKRPTADEWETALVKTVDLIQPCQNTACEQKWYVFSGKTKPVCPYCLEHHHHHH”, the “soluble on expression in E. coli” value is “not soluble”.

In the case of “MHHHHMITLENPDIKYPLRLIDKEILSHDTRRFRFALPSPQHILGLPIGQHIYLSTRIDGNLVIRPYTPVSSDDDKGFVDLVVKVYFKETHPKFPAGGKMPQYLENMNIGDTIEFRGPNGLLVYQGKGKFAIRADKKSNPVVRTVKSVGMIAGGTGITPMLQVIRAVLKDPNDHTVCYLLFANQSEKDILLRPELEELRNEHSSRFKLWYTVDKAPDAWDYSQGFVNEEMIRDHLPPPGEETLILMCGPPPMIQFACLPNLERVGHPKERCFTF”, the “soluble on expression in E. coli” value is recorded as “soluble”.

Turning to “MDHQFGYGVEVTGLSPSVTHNDLIDFFSFSGTIQDIDIVRSGEQACTAYVMFKDSYSQETAVLLTGATILDQRVCITRWGQHHEEFDFWNATSRGFEDESDSQHYAQRSEFNAGEAVTKAQEVVKIMLATGFVLGKDALSKAKAFDESHGVSAAAVARVSQLEQRIGLTDKIFTGLEAVRMTDQRYHVSDTAKSAVFATGRTAAAAATSVVNSSYFSSGALWLSGALERAAKAASDLGTRGSRQ”, the “soluble on expression in E. coli” value is on record as “soluble”.

In the case of “GPGSMSNAKNGSETTYFTAIANRDVEALKALIAQNRNVNEVAQDPVLYHRTPLHICVWENFVEGAKLLLDAGADVNALDDLHDSPYLLSGAEGRQEIMEHIYKNAERTMRYGSQTSLRMKTSVPDHSIVNRFGGSALIPACERGHVEMVRLLLQKGVDVNHYNYYHWTGLLEAIELGGDDREHVDIVRLLIENGADVNQVDGAGKTPLYLARKRKYKRIAALLEAAGGHE”, the “soluble on expression in E. coli” value is recorded as “soluble”.

In the case of “MGSDKIHHHHHHMQVGTIFGHKNSEGTLVSSAAIIPYESKLASIGMVIVSSQCRGLGLGREVTEACIKATLEDTTLMLIATDEGRPLYERLGFAAVERIHKHLCDDYKEPESIPSMDVTIEELRSNDFRQLVQLDEGAMGVRRSRFLKQRTTQANQSLVAKDKAGNVIGYGLSILGPIHLIIGPIVAPNHEIACLILDRLACQHKGKLRMDVPSGHHTFLQHLQRRGFTEVNTPPVMAKQSAYEPRRNGTLFAIAAQVFG”, the “soluble on expression in E. coli” value is listed as “not soluble”.

In the case of “MDHSPWQRCLSVLQEELPAQQFSMWIRPLQCVINDNVMTLYAPNRFVLDWVRDKYVNRINELLTINESNNPLLLRFDVGSKPTIDNSVTNSPVSRNTGGNESLFAKATSAPKVAEPESNIPKKTNVRLNYTFENFVEGKSNQLARAAASQVADNPGTAYNPLFIYGGTGLGKTHLLHAVGNGILLNKPNAKIAYMHSERFVQDMVRALQNNAMEKFKQYYRSVDALLIDDIQFFAGKERTQEEFFHTFNALLEGNQQVILTSDRYPKEINGVDDRLKSRFGWGLTLAIEPPELETRVAILKRKAQESQINLADEVAFFIAKRLRSNVRELEGALNRVIANANFTGRAITIDFVREALRDLLALQDKLVTIDNIQRTVAEYYKIKIADLLSKRRNRSVARPRQIAMALSKELTNHSLPEIGDAFGGRDHTTVLHACRKVKSLREETHDIKEDYSNLIRTLSSLEHHHHHH”, the “soluble on expression in E. coli” value is “not soluble”.
